Measured values reported in patent US9873895B2, “Production of 1,3-dienes by enzymatic conversion of 3-hydroxyalk 4-enoates and/or 3-phosphonoxyalk-4-enoates” (Scientist of Fortune S.A., priority 2011, dated 2018).

Experiment: 1,3-butadiene production from 3-phosphonoxypent-4-enoate by using a terpene synthase (headspace GC-FID)
Type: biochemical
Settings: 5 mg/ml enzyme, 50 mM 3-phosphonoxypent-4-enoate, 37° C., 24 hours
Description: The reactions were performed in sealed vials. The total volume was 0.5 ml. Final concentrations were 5 mg/ml enzyme, 50 mM 3-phosphonoxypent-4-enoate, 4 mM DTT, 50 mM MgCl2, 50 mM KCl, 50 mM Tris-HCl buffer pH 7.5. The incubation was carried out at 37° C. for 24 h. The control reactions without enzyme or without substrate were performed in parallel under the same conditions.
One ml of the gaseous phase of the reaction was collected and analyzed by Gas-Chromatography with Flame Ionization Detector (GC-FID) ((Brucker GC 450) using a RTX-alumina column (Varian), with an isocratic elution at 130° C. and nitrogen as carrier gas at flow rate of 1.5 ml/min. The retention of commercial 1,3-butadiene (Sigma) in these conditions was 7.4 min.

B1: isoprene synthase from Pueraria montana var. lobata: purified His-tagged isoprene synthase (terpene synthase), Uniprot Q6EJ97, SEQ ID NO: 30, expressed in E. coli (protein, listed as Pueraria montana)
chain: MCATSSQFTQITEHNSRRSANYQPNLWNFEFLQSLENDLKVEKLEEKATKLEEEVRCMINRVDTQPLSLLELIDDVQRLGLTYKFEKDIIKALENIVLLDENKKNKSDLHATALSFRLLRQHGFEVSQDVFERFKDKEGGFSGELKGDVQGLLSLYEASYLGFEGENLLEEARTFSITHLKNNLKEGINTKVAEQVSHALELPYHQRLHRLEARWFLDKYEPKEPHHQLLLELAKLDFNMVQTLHQKELQDLSRWWTEMGLASKLDFVRDRLMEVYFWALGMAPDPQFGECRKAVTKMFGLVTIIDDVYDVYGTLDELQLFTDAVERWDVNAINTLPDYMKLCFLALYNTVNDTSYSILKEKGHNNLSYLTKSWRELCKAFLQEAKWSNNKIIPAFSKYLENASVSSSGVALLAPSYFSVCQQQEDISDHALRSLTDFHGLVRSSCVIFRLCNDLATSAAELERGETTNSIISYMHENDGTSEEQAREELRKLIDAEWKKMNRERVSDSTLLPKAFMEIAVNMARVSHCTYQYGDGLGRPDYATENRIKLLLIDPFPINQLMYV
modifications: His tag; var. lobata
ratio of butadiene produced in the presence of isoprene synthase versus in the absence of enzyme (butadiene peak areas): about 5 fold
